Drawing on publication PMC8457056, “Remodeling of the Fibrillation Pathway of α‐Synuclein by Interaction with Antimicrobial Peptide LL‐III” (Chemistry (Weinheim an Der Bergstrasse, Germany), 2021), this text covers Ka for two molecules.

Where no end group is shown, it is not given here. carboxyfluorescein = carboxyfluorescein at the N-terminus

The assay has as its target α‐Synuclein (human, UniProt P37840 1-140). As to the kind of experiment: fluorescence polarisation. Conditions: both partners purified. (Fluorescence polarisation rises when a labelled molecule tumbles more slowly, as on binding a larger partner.)

In turn, carboxyfluorescein-VNWKKILGKIIKVVK [carboxyfluorescein‐labeled LL‐III] showed a Ka of 19000 M⁻¹.

The molecule H-VNWKKILGKIIKVVK-NH2 [antimicrobial peptide LL‐III] gave a Ka of 37000 M⁻¹.
